Biological target: T1, Rad54 (Saccharomyces cerevisiae, UniProt P32863 1-898)
T1 sequence: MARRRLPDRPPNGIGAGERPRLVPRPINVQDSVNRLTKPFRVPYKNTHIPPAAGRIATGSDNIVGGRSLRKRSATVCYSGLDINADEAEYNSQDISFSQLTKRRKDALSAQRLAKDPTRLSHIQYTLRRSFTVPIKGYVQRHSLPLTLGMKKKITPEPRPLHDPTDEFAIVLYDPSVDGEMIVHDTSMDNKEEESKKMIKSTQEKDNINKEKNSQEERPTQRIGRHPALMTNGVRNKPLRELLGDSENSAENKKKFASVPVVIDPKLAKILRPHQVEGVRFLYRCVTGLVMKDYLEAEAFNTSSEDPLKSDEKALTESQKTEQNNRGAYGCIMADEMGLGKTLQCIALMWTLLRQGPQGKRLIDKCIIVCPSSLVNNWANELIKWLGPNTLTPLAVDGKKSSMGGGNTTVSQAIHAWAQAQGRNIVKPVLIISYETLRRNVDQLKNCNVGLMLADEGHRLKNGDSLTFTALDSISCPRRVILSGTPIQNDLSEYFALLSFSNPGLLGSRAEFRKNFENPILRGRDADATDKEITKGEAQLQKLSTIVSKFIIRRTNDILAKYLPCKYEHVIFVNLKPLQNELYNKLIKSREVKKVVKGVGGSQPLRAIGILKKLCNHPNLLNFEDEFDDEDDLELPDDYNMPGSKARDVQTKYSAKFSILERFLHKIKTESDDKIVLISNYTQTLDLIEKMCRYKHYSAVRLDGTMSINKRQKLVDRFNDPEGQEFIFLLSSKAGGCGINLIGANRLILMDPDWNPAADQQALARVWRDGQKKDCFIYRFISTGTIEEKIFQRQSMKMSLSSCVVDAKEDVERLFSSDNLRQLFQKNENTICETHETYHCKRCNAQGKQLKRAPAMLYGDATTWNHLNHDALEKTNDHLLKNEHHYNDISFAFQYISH
Assay: EMSA; apparent Kd; Hill fit; 3 mM Mg2+; EMSA: 35 mM Tris-Cl pH 7.5, 3 mM MgCl2, 50 mM KCl, 1 mM DTT, 10% glycerol, 10 nM DNA, 30 C, 5 min, 8% native PAGE in 0.5x TBE; DNA curtains: HR buffer (composition not given), 10 nM GFP-Rad54, flow 0.2 mL/min
Conditions: protein: recombinant; tags: GFP-GST (N-term); label: Atto647N 5' on strand 1; blunt

B1: 90 bp dsDNA (90-mer) (dsDNA)
DNA 1: GATGTTCTGCTGGATATGCACTTTTCCGGGCTGACGTACACCGTGCTCAGCCTGTTTTTCAGCGATCCGGATATGCATCCGCTGGATTTC
DNA 2: GAAATCCAGCGGATGCATATCCGGATCGCTGAAAAACAGGCTGAGCACGGTGTACGTCAGCCCGGAAAAGTGCATATCCAGCAGAACATC
With B1 as the binder, how does the Kd read?
Its Kd is 21 nM.

Source: publication PMC13138755, “Potential Rad54 separation of function mutation highlights unique roles during homologous recombination”
